According to patent publication US20200407435A1 (Boehringer Ingelheim, published 2020):
Positions count from the first letter of the chain named. Where “and” joins values, the source holds several entries; their conditions need not be identical. Identical values can stand only once.

Columns and labels:
[1] = target: T1, human ANGPT2 (SPR analyte) (human, UniProt O15123 275-496, limits assumed); assay: SPR (ProteOn XPR36), antibody captured on Protein A/G, ANGPT2 as analyte, 1:1 Langmuir fit
T1 construct: domain: FLD domain; also called HuANGPT2; human ANGPT2 FLD domain
T1 sequence (looked up): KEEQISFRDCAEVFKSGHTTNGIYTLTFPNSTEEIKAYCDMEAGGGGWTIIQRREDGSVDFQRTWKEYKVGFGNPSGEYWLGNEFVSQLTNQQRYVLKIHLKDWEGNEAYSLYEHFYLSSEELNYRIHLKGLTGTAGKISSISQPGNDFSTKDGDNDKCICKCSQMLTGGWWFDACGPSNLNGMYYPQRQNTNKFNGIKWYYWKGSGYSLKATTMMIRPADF
Procedure: (§1) The binding affinity to the various ANGPT2 analytes is determined by surface plasmon resonance (SPR) using a ProteOn XPR36 (Bio-Rad). Unless otherwise stated, all reagents are obtained from Bio-Rad. The running buffer for all assays and dilutions (except where stated) is phosphate buffered saline (PBS)/ethylenediamine tetraacetic acid (EDTA) with 0.01% Tween20 (PBS-T-EDTA). PBS-T-EDTA is prepared by adding 100 μl of 100% Tween20 to 2 L of PBS-T-EDTA with an initial concentration of 0.005% Tween20 to make a final Tween20 concentration of 0.01%. The general linearized model (GLM) sensorchip is normalized, pre-conditioned, and activated with an equal mixture of 1-ethyl-3-[3-dimethylaminopropyl]carbodiimide (EDC)/N-hydroxysulfosuccinimide (s-NHS) in the horizontal direction for 300 sec at a flow rate of 30 μl/min. Immobilization is then is done with Recombinant Protein A/G (Thermo Scientific) (60 μg/ml in 10 mM acetate pH 4.5) in the horizontal direction for 300 sec at a flowrate of 30 μl/min resulting in about 4370-4875 response units (RUs) of Protein A/G on the surface. The sensorchip is then deactivated with 1M ethanolamine HCl in the horizontal direction for 300 sec at a flowrate of 30 μl/min. The sensorchip is stabilized with 18 sec of 0.85% phosphoric acid at a flowrate of 100 μl/min 3 times horizontally and 3 times vertically.
(§2) Each ANGPT2 antibody is captured on the Protein A/G surface vertically for 300 sec at a flowrate of 30 μl/min resulting in a capture level of about 2500 RU. The baseline is stabilized by injecting PBS-T-EDTA for 60 sec at a flowrate of 100 μl/min horizontally with dissociation of 120 sec. The analyte (e.g., HuANGPT2) is injected horizontally over the captured antibody for 300 sec at a flowrate of 30 μl/min and a dissociation for 1800 sec. […] The surface is regenerated by injecting 0.85% phosphoric acid for 18 sec at a flowrate of 100 μl/min one time horizontally and one time vertically. PBS-T-EDTA is injected for 60 sec at a flowrate of 100 μl/min one time vertically and one time horizontally.
(§3) The interspot (interactions with sensor surface) and blank (PBS-T-EDTA with 0.01% Tween20 or 0 nM of analyte (here HuANGPT2)) are subtracted from the raw data.

cynomolgus (cyno) ANGPT2 = target: T2, cynomolgus (cyno) ANGPT2 (cynomolgus, UniProt A0A2K5VNX6 275-496); assay: as above
T2 construct: domain: FLD domain; also called cyno ANGPT2 FLD domain
T2 sequence: T1 sequence (looked up) with E2G, I23V, F28L, I35V, G154A, A212G, D221G
Procedure: as §1, §2, §3

rabbit ANGPT2 = target: T3, rabbit ANGPT2 (rabbit, UniProt G1T9B3 275-496); assay: SPR (ProteOn XPR36), antibody captured on Protein A/G, rabbit ANGPT2 as analyte
T3 construct: domain: FLD domain; also called rabbit ANGPT2 FLD domain
T3 sequence: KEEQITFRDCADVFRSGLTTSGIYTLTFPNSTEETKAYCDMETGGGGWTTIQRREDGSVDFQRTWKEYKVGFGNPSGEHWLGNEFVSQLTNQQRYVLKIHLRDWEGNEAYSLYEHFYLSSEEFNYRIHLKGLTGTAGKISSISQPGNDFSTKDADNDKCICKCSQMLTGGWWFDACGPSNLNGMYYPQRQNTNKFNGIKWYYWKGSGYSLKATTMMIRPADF
Procedure: as §1, with “vertically. […]” for “vertically.”

[2] = target: T4, rhAngiopoietin-2 (R&D systems cat 623-AN/CF) (human, UniProt O15123 19-496, limits assumed); assay: cell-based or functional assay
T4 sequence (looked up): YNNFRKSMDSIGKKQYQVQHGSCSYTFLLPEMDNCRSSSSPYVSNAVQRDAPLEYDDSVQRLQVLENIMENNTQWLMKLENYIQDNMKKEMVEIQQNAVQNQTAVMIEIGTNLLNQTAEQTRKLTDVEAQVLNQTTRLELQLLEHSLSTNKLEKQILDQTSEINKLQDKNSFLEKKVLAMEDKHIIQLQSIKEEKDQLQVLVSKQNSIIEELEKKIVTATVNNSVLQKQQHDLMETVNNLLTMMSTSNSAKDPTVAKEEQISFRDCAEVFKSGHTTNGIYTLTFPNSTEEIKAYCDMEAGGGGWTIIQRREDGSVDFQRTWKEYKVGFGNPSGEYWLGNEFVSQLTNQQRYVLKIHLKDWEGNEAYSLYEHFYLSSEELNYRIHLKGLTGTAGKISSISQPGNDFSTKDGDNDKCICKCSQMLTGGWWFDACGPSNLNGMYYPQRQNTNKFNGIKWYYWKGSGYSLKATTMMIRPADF

[3] = target: T5, Human ANGPT2 Dimer (CC-FLD) (human, UniProt O15123 74-496, limits assumed); assay: flow cytometry blocking assay: antibody titrated against His-tagged human ANGPT2 dimer (CC-FLD) binding to HEK293 human Tie2 cells
T5 construct: domain: CC-FLD; also called ANGPT2 protein with His-tag; not shown: His-tag
T5 sequence (looked up): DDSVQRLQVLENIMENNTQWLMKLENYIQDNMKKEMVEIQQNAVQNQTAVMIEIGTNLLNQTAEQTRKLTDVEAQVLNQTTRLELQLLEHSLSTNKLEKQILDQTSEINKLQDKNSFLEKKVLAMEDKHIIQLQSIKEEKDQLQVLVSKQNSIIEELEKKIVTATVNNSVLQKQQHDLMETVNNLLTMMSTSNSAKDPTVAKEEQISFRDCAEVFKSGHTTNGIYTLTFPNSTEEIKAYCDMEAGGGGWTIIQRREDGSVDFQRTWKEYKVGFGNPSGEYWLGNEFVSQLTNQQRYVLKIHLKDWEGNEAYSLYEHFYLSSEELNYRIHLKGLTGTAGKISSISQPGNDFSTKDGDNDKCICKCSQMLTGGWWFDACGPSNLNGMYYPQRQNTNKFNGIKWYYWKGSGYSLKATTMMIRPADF
Procedure: Human ANGPT2 Dimer (CC-FLD) is pre-incubated with the testing antibodies. The ANGPT2/Antibody mixture is then incubated with HEK293 human Tie2 cells at 4° C. After washing, the cells are stained with anti-His-AF647 (from GenScript) for detection of the His-tag on the ANGPT2 protein. The binding of the secondarily labelled ANGPT2 to human Tie2 cells is detected by FLOW cytometry. The average of the duplicate values for each concentration point is used to derive the curve fit graphs. Antibodies that prevent ANGPT2 from binding to the Tie2 cells are considered blocking antibodies. The results are shown in FIGS. 3A-3G and the EC50 values are shown in Table 5 based on the average of duplicate values.

Kd [1]: 0.144 nM | koff [1]: 1.89e-05 s⁻¹ | kon [1]: 132000 M⁻¹ s⁻¹ | Kd (cynomolgus (cyno) ANGPT2): 0.146 nM | koff (cynomolgus (cyno) ANGPT2): 2.08e-05 s⁻¹ | kon (cynomolgus (cyno) ANGPT2): 142000 M⁻¹ s⁻¹ | Kd (rabbit ANGPT2): 0.133 nM | Tie2 phosphorylation functional assay, EC50 [2]: 4.2 nM and 4 nM | EC50 [3]: 13 nM
B1: ANGPT2-opt-13 (humanized) (antibody, human IgG1, kappa, V domains shown)
VH: QVQLVQSGAEVKKPGSSVKVSCKASGYIFIDYFINWVRQAPGQGLEWMGKIGPGSGSSSSNEKFKGRVTITADKSTSTAYMELSSLRSEDTAVYYCAREAFDYDGDYYGMAYWGQGTLVTVSS
VL: EIVMTQSPATLSVSPGERATLSCKSSQSLLSSGNQKSFLAWYQQKPGQAPRLLIYGASTRETGIPARFSGSGSGTEFTLTISSLQSEDFAVYYCQNDHSYPITFGQGTKLEIKR
notes: also called Ang2-opt-13; ANGPT-opt-13
